We go through 3 molecules from patent publication US8030043B2, “β-galactoside-α2,3-sialyltransferase, a gene encoding thereof, and a method for producing thereof” (Japan Tobacco Inc., priority 2005, dated 2011).

The test system of one data set is asialofetuin. Description: Sialic acid transfer to glycoprotein (asialofetuin), gel filtration and scintillation counting. It is filed as biochemical. The note with it: asialofetuin acceptor; CMP-14C-NeuAc 22.8 nmol (about 19,000 cpm); enzyme 10 mU; 25° C., 2 hours. The source says: Cell homogenates prepared from E. coli cells introduced with the third clone of ISH467-N2C0, the first clone of ISH224-N1C0 and the first clone of FAJ-N1C0 were each purified by ion exchange chromatography and hydroxyapatite chromatography to give an electrophoretically single band. The thus purified β-galactoside-α2,3-sialyltransferases were used in the following experiment in order to examine the presence or absence of sialyltransferase activity toward glycoproteins.
As a glycosyl acceptor substrate, asialofetuin was used. Asialofetuin (2 mg) was dissolved in 1 ml of 20 mM Bis-tris buffer (pH 6.0) and used as a glycosyl acceptor substrate solution. As a glycosyl donor substrate, CMP-^14C-NeuAc-containing CMP-NeuAc was used. The glycosyl acceptor substrate solution (40 μl), the glycosyl donor substrate (5 μl, 22.8 nmol (about 19,000 cpm)) and any of the enzyme solutions (5 μl, 10 mU each) were mixed and incubated at 25° C. for 2 hours to cause sialic acid transfer reaction. After completion of the reaction, the reaction solution was gel-filtered by being applied to a Sephadex G-50 Superfine (0.8×18.0 cm) equilibrated with 0.1 M sodium chloride. A glycoprotein-containing eluate fraction (2-4 ml fraction) from gel filtration was collected and measured for its radioactivity using a liquid scintillation counter to quantify sialic acid transferred to the glycosyl acceptor substrate.
A general note: Size exclusion chromatography separates by hydrodynamic size, large species first.

Data set [1] can be described thus: Optimum pH for enzyme activity. Conditions: 25° C.; acetate, cacodylate, phosphate, TAPS, CHES, CAPS buffers pH 4.0-11.0. Type of data set: biochemical. As for the experimental part:
Purified enzymes were prepared to examine the optimum pH and temperature for β-galactoside-α2,3-sialyltransferase produced by the strain JT-ISH-467 as well as recombinant β-galactoside-α2,3-sialyltransferases produced by the third clone of ISH467-N2C0, the first clone of ISH224-N1C0 and the first clone of FAJ-N1C0.
Acetate buffer (pH 4.0, pH 4.5 and pH 5.0), cacodylate buffer (pH 5.0, pH 5.5, pH 6.0, pH 6.5 and pH 7.0), phosphate buffer (pH 7.0, pH 7.5 and pH 8.0), TAPS buffer (pH 8.0, pH 8.5 and pH 9.0), CHES buffer (pH 9.0, pH 9.5 and pH 10.0) and CAPS buffer (pH 10.0, pH 10.5 and pH 11.0) were prepared and used for enzyme activity measurement at 25° C. at various pH values.
As a result, as shown in FIGS. 3-1 and 3-2, the enzyme activity was maximum at pH 5.0 for β-galactoside-α2,3-sialyltransferase produced by the strain JT-ISH-467, at pH 5.5 for the third clone of ISH467-N2C0, at pH 5.0 for the first clone of ISH224-N1C0, and at pH 5.5 for the first clone of FAJ-N1C0. […] It should be noted that enzyme activity at each pH was expressed as relative activity, assuming that the enzyme activity at pH where it reached a maximum was set to 100.

B1: ISH224-N1C0 first clone: JT-ISH-224 sialyltransferase lacking signal peptide region, nucleotides 73 to 1230 of SEQ ID NO: 28 (protein, listed as Photobacterium sp.)
chain: MLVFCKKMFFSVFISLMILGGCNSDSNHNNSDGNITKNKTIEVYVDRATLPTIQQMTQIINENSNNKKLISWSRYPINDEELLESINGSFFKNNSELIKSLDSMILTNDIKKVIINGNTLWAADVVNIIKSIEAFGKKTEIELNFYDDGSAEYVRLYDFSKLPESEQEYKISLSKDNILSSINGTQPFENVVENIYGFSQLYPTTYHMLRADIFETNLPLRSLKGVLSNNIKQMKWDYFKTFNSQQKDKFYNFTGFNPDEIMEQYKASPNKNFIFVGTNSGTATAEQQIDILTEAKNPNSPIITKSIQGFDLFFKGHPSATYNKQIIDAHNMIEIYNKIPFEALIMTDALPDAVGGMGSSVFFSLPNTVENKFIFYKSDTDIENNALIQVMIELNIVNRNDVKLISDLQ
modifications: CDS (1)..(1230) /gene=“224-23ST” /product=“Beta-galactoside-alpha-2,3-sialyltransferase”
For B1, in the data set with asialofetuin, the “Radioactivity (cpm)” value amounted to 3301 cpm. In addition, the “pH at which the enzyme activity was maximum (optimum pH)” value (from here on “pH”) in data set [1] came to 5.0.

B2: FAJ-N1C0 first clone: JT-FAJ-16 sialyltransferase lacking signal peptide region, nucleotides 67 to 1209 of SEQ ID NO: 30 (protein, listed as Vibrio sp.)
chain: MKNIITKRMLIILSSLFTIIGCNNDNSTTTNNNAIEIYVDRATLPTIQQMTKIVSQKTSNKKLISWSRYPITDKSLLKKINAEFFKEQFELTESLKNIILSENIDNLIIHGNTLWSIDVVDIIKEVNLLGKNIPIELHFYDDGSAEYVRIYEFSKLPESEQKYKTSLSKNNIKFSIDGTDSFKNTIENIYGFSQLYPTTYHMLRADIFDTTLKINPLRELLSNNIKQMKWDYFKDFNYKQKDIFYSLTNFNPKEIQEDFNKNSNKNFIFIGSNSATATAEEQINIISEAKKENSSIITNSISDYDLFFKGHPSATFNEQIINAHDMIEINNKIPFEALIMTGILPDAVGGMGSSVFFSIPKEVKNKFVFYKSGTDIENNSLIQVMLKLNLINRDNIKLISDI
modifications: CDS (1)..(1209) /gene=“FAJ16-23ST” /product=“Beta-galactoside- alpha 2,3-sialyltransferase”
As for B2, the “Radioactivity (cpm)” value with asialofetuin is 2865 cpm. Moreover, the “pH” value in data set [1] is given as 5.5.

B3: ISH467-N2C0 third clone: JT-ISH-467 sialyltransferase lacking signal peptide region, nucleotides 73 to 1230 of SEQ ID NO: 1, no mutation (protein, listed as Photobacterium phosphoreum)
chain: MFVFCKKIFFLIFISLMILGGCNSDSKHNNSDGNITKNKTIEVYVDRATLPTIQQMTQIINENSNNKKLISWSRYPINDETLLESINGSFFKNRPELIKSLDSMILTNEIKKVIINGNTLWAVDVVNIIKSIEALGKKTEIELNFYDDGSAEYVRLYDFSRLPESEQEYKISLSKDNIQSSINGTQPFDNSIENIYGFSQLYPTTYHMLRADIFETNLPLTSLKRVISNNIKQMKWDYFTTFNSQQKNKFYNFTGFNPEKIKEQYKASPHENFIFIGTNSGTATAEQQIDILTEAKKPDSPIITNSIQGLDLFFKGHPSATYNQQIIDAHNMIEIYNKIPFEALIMTDALPDAVGGMGSSVFFSLPNTVENKFIFYKSDTDIENNALIQVMIELNIVNRNDVKLISDLQ
modifications: CDS (1)..(1230) /gene=“467-23ST” /product=“Beta-galactoside- alpha 2,3-sialyltransferase”
On to B3, for which, in the data set with asialofetuin, the “Radioactivity (cpm)” value is listed as 1729 cpm. For the same molecule, the “pH” value in data set [1] was found to be 5.5.
